Results reported in the Human Domainome abundance scans (Beltran et al. 2025).
± gives the uncertainty stated by the source.

B1: Formin-binding protein 4, residues 200 to 261; numbered along this chain, Q8N3X1 (parent)
chain: SGWQYDTQCSLAGVGIEMGDWQEVWDENTGCYYYWNTQTNEVTWELPQYLATQVQGLQHYQP
B2: SAM and SH3 domain-containing protein 1, residues 630 to 700; numbered along this chain, O94885 (parent)
chain: GRPPQPKSVEDLLDRINLKEHMPTFLFNGYEDLDTFKLLEEEDLDELNIRDPEHRAVLLTAVELLQEYDSN

Variants of: B1
Assay: abundance fitness (aPCA) (normalised: wild type 0, dead -1); higher = more abundant; growth selection in yeast, the domain comes from the species named
Conditions: Homo sapiens

Variant	abundance fitness
SGWQYDTQCSLAGVGIEMGDWQEVWDENTGCYYYWNTQTNEVTWELPQYLATQVQGLQHYQM [P62M]	0.218 ± 0.32
SGWQYDTQCSLAGVGIEMGDWQEVWDENTGCYYYWNTQTNEVTWELPQYLATQVQGLQHYQV [P62V]	-0.423 ± 0.16
SGWQYDTQCSLAGVGIEMGDWQEVWDENTGCYYYWNTQTNEVTWELPQYLATQVQGLQHYQL [P62L]	-0.011 ± 0.14
SGWQYDTQCSLAGVGIEMGDWQEVWDENTGCYYYWNTQTNEVTWELPQYLATQVQGLQHYQR [P62R]	-0.29 ± 0.093
SGWQYDTQCSLAGVGIEMGDWQEVWDENTGCYYYWNTQTNEVTWELPQYLATQVQGLQHYQT [P62T]	-0.009 ± 0.12
SGWQYDTQCSLAGVGIEMGDWQEVWDENTGCYYYWNTQTNEVTWELPQYLATQVQGLQHYQY [P62Y]	-0.161 ± 0.23
SGWQYDTQCSLAGVGIEMGDWQEVWDENTGCYYYWNTQTNEVTWELPQYLATQVQGLQHYQQ [P62Q]	-0.237 ± 0.16
SGWQYDTQCSLAGVGIEMGDWQEVWDENTGCYYYWNTQTNEVTWELPQYLATQVQGLQHYQS [P62S]	0.045 ± 0.11

Variants of: B2
Assay: as above
Conditions: Homo sapiens

Variant	abundance fitness
GRKPQPKSVEDLLDRINLKEHMPTFLFNGYEDLDTFKLLEEEDLDELNIRDPEHRAVLLTAVELLQEYDSN [P3K]	-0.279 ± 0.055
GRPPQPKSVEDLLDRINLKEHMPTFLFNGYEDLSTFKLLEEEDLDELNIRDPEHRAVLLTAVELLQEYDSN [D34S]	-0.158 ± 0.035
GRPPQPKSVADLLDRINLKEHMPTFLFNGYEDLDTFKLLEEEDLDELNIRDPEHRAVLLTAVELLQEYDSN [E10A]	-0.145 ± 0.046
GRPPQPKSVTDLLDRINLKEHMPTFLFNGYEDLDTFKLLEEEDLDELNIRDPEHRAVLLTAVELLQEYDSN [E10T]	-0.559 ± 0.052
GRPPQPKSVEDLLDRINLKEHMPVFLFNGYEDLDTFKLLEEEDLDELNIRDPEHRAVLLTAVELLQEYDSN [T24V]	-0.179 ± 0.041
GRPPQPKSVEDLLDRINLKEHMPTFLFNGYEDLDTFKLLEKEDLDELNIRDPEHRAVLLTAVELLQEYDSN [E41K]	-0.302 ± 0.066
GRPPQPKSVEDLLDRINLKEHMPTFLFNGYEDLDTFKLFEEEDLDELNIRDPEHRAVLLTAVELLQEYDSN [L39F]	-0.973 ± 0.079
GRPPQPKSVEDLEDRINLKEHMPTFLFNGYEDLDTFKLLEEEDLDELNIRDPEHRAVLLTAVELLQEYDSN [L13E]	-0.572 ± 0.081
GRPPQPKSVEDLLDRINLKEHMPTFLFNGYEDLDTFKLLEEEDLDELNIRDPEHRAVLLTEVELLQEYDSN [A61E]	0.074 ± 0.062
GRPPQPKSVEDLLDRINLKEHMPTFLFNGYEDLDTFKLLEEEDLDELNIRDPTHRAVLLTAVELLQEYDSN [E53T]	-0.207 ± 0.043
GRPPQPKSVEDLLDRINLKEHMPTFSFNGYEDLDTFKLLEEEDLDELNIRDPEHRAVLLTAVELLQEYDSN [L26S]	-0.337 ± 0.045
GRPPQPKSVEDLLDRINLKEHMPTFLFNGYEDLDTFKLLEEEDLDELNIRDPEHRACLLTAVELLQEYDSN [V57C]	0.107 ± 0.051
GRPPQPKSVEDLLDRINLKEHMPTFLFNGYEDLDTFKLLEEEDPDELNIRDPEHRAVLLTAVELLQEYDSN [L44P]	-0.764 ± 0.073
GRPPQPKSVEDLLDRINLKEHMPTFLFNGYEDLDTFKLLEEEDGDELNIRDPEHRAVLLTAVELLQEYDSN [L44G]	-0.819 ± 0.065
GRPPQPKSVEDLLDRINLKEHMPTFLFNGYEDLDTFKLLEEEDLDEINIRDPEHRAVLLTAVELLQEYDSN [L47I]	-0.671 ± 0.058
GRPPQPKSVEDLLDNINLKEHMPTFLFNGYEDLDTFKLLEEEDLDELNIRDPEHRAVLLTAVELLQEYDSN [R15N]	-0.075 ± 0.046

Variant	abundance fitness
GRPPQPKSVEDLLDRINLKEHVPTFLFNGYEDLDTFKLLEEEDLDELNIRDPEHRAVLLTAVELLQEYDSN [M22V]	0.046 ± 0.035
GRPPQPKSVEDLLDRINLKEHMPTFLFNGYEDLDTFKLLEEEDLDELWIRDPEHRAVLLTAVELLQEYDSN [N48W]	-0.775 ± 0.15
GRPPQPKSVEDLLDRANLKEHMPTFLFNGYEDLDTFKLLEEEDLDELNIRDPEHRAVLLTAVELLQEYDSN [I16A]	-0.424 ± 0.062
GRPPQHKSVEDLLDRINLKEHMPTFLFNGYEDLDTFKLLEEEDLDELNIRDPEHRAVLLTAVELLQEYDSN [P6H]	-0.607 ± 0.085
GRPPQSKSVEDLLDRINLKEHMPTFLFNGYEDLDTFKLLEEEDLDELNIRDPEHRAVLLTAVELLQEYDSN [P6S]	-0.533 ± 0.049
GRPPQPKSVEDLLDRINLKEHMPTFLFNGYEDLDSFKLLEEEDLDELNIRDPEHRAVLLTAVELLQEYDSN [T35S]	0.104 ± 0.035
GRPPQPKSVEDLLDRINLKEHMPTFLFSGYEDLDTFKLLEEEDLDELNIRDPEHRAVLLTAVELLQEYDSN [N28S]	-0.395 ± 0.039
GRPPQPKSVEDLLDRINLKEHMPTFLFNGYEDLDTFKLLEEEDLDELNIRDPEHRAVLLTAVELLQESDSN [Y68S]	0.14 ± 0.038
GRPPQPKSVEDLLDRINLFEHMPTFLFNGYEDLDTFKLLEEEDLDELNIRDPEHRAVLLTAVELLQEYDSN [K19F]	-0.654 ± 0.061
GRPPQPKSVEDLLDRINLKEHMPTFLFNGYEDLDTFKLLEEEDLDELNIRDPEHYAVLLTAVELLQEYDSN [R55Y]	-0.935 ± 0.093
GRPPQPKSVEDLLDRINLKEHMPTFLFNGYEDLDTFKLLEEEDLDELNIRDREHRAVLLTAVELLQEYDSN [P52R]	-0.499 ± 0.041
GRPPQPKSVEDLLDRINLKEHMPTFLFNGYEDLDTFKLLEEEKLDELNIRDPEHRAVLLTAVELLQEYDSN [D43K]	-0.117 ± 0.044
GRPPQPKSVEDYLDRINLKEHMPTFLFNGYEDLDTFKLLEEEDLDELNIRDPEHRAVLLTAVELLQEYDSN [L12Y]	-0.672 ± 0.087
GRPPQPKSVEDHLDRINLKEHMPTFLFNGYEDLDTFKLLEEEDLDELNIRDPEHRAVLLTAVELLQEYDSN [L12H]	-0.924 ± 0.096
GRPPQPKSVEDLLDRINLKEHMPTFLFNGYEDLDTFKLLEEEDLVELNIRDPEHRAVLLTAVELLQEYDSN [D45V]	-0.151 ± 0.041
